Experimental data published in patent publication US20080076708A1.

Molecular target: Recombinant human Interleukin-18 (r-hIL-18) (human) (UniProt Q14116)
Test: cell-based or functional assay

Chain of Recombinant human Interleukin-18 (r-hIL-18) (human) (Q14116 37-193 limits assumed): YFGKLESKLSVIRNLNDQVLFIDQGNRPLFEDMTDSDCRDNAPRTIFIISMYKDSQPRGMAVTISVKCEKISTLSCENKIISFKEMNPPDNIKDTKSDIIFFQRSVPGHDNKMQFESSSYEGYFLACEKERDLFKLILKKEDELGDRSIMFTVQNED

| Biological activity U/mL (KG-1 cells in vitro bioassay; bulk ILNCT23) [U/mL] | Biological activity U/mL (KG-1 cells in vitro bioassay; bulk ILNCT24) [U/mL] | Specific activity U/mg (KG-1 cells in vitro bioassay; bulk ILNCT23) [U/mg] | Specific activity U/mg (KG-1 cells in vitro bioassay; bulk ILNCT24) [U/mg] | Biological activity U/mL (KG-1 cells in vitro bioassay; bulk ILNCT19) [U/mL] | Biological activity U/mL (KG-1 cells in vitro bioassay; bulk ILNCT20) [U/mL] | Biological activity U/mL (KG-1 cells in vitro bioassay; bulk ILNCT21) [U/mL] | Biological activity U/mL (KG-1 cells in vitro bioassay; bulk ILNCT22) [U/mL] | Specific activity U/mg (KG-1 cells in vitro bioassay; bulk ILNCT19) [U/mg] | Specific activity U/mg (KG-1 cells in vitro bioassay; bulk ILNCT20) [U/mg] | Specific activity U/mg (KG-1 cells in vitro bioassay; bulk ILNCT21) [U/mg] | Specific activity U/mg (KG-1 cells in vitro bioassay; bulk ILNCT22) [U/mg] | Substance |
| --- | --- | --- | --- | --- | --- | --- | --- | --- | --- | --- | --- | --- |
| 1.2e+06 | 1.01e+06 | 19800 | 17900 | – | – | – | – | – | – | – | – | r-hIL-18BP bulks ILNCT23 and ILNCT24 (from UniProt O95998 31-194) |
| – | – | – | – | 949000 | 1.23e+06 | 1.28e+06 | 1.35e+06 | 15400 | 21400 | 20400 | 22500 | truncated form of r-hIL-18BP (serum-free produced drug substance batches ILNCT19-22) (from UniProt O95998 46-194) |
